These results are taken from the supplement of paper PMC10219994.

The chains are these.
B1: library; a variant is named by its letters at N, in order (parent)
chain: GAGACCGCAACTGAAAAGTTGTGGNNNNNATAGTGAGTCGCTGCCTGCAAAGACACAACT

± gives the standard deviation of the averaged measurements.

The variants in this data set derive from B1. The data set can be described thus: ligation selection enrichment (abundance after / before one-round selection) (fold); higher = more template-directed ligation activity. The note with it: with T7Psub CACGGAUGCUAAUACGACUCACUAUA; MgCl2 25 mM; 42 °C; 4 h; pH 8.5. The method, then:
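Lib-N5 ligase ribozyme library: five randomized core nucleotides (including the GGA motif of N8-1) within the fixed N8-1 ribozyme flanks, transcribed by T7 RNA polymerase with a 5'-triphosphate. The library (0.75 uM) was reacted with substrate T7Psub (6 uM) in 50 mM EPPS pH 8.5 with 25 mM MgCl2 at 42 C for 4 h. Ligated products were PAGE-purified, reverse transcribed and MiSeq sequenced; enrichment = abundance after selection / abundance before selection, with two independent replicates. The full transcript is built from the printed template flanks.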
With AGGTC, the ligation selection enrichment was 0.196 ± 0.011.

Turning to AGGTT, the ligation selection enrichment is 0.245 ± 0.075.

As for AGGTG, the ligation selection enrichment is 0.279 ± 0.036.

For the variant AGGTA, the ligation selection enrichment was 0.41 ± 0.019.

CCGGG: the ligation selection enrichment turned out to be 0.244 ± 0.014.

As for CCGGT, the ligation selection enrichment worked out at 0.152 ± 0.021.

As for GGCGC, the ligation selection enrichment came to 0.2927 ± 0.0028.

As to GGCGT, the ligation selection enrichment came to 0.168 ± 0.023.

Turning to GGCGA, the ligation selection enrichment was determined as 1.52 ± 0.26.

On to GGCGG, for which the ligation selection enrichment worked out at 0.252 ± 0.022.

Take CCTCA: the ligation selection enrichment turned out to be 0.348 ± 0.055.

On to CCTCC, for which the ligation selection enrichment is 0.347 ± 0.0045.

As to CCTCG, the ligation selection enrichment is 0.55 ± 0.064.

On to CCTCT, for which the ligation selection enrichment came out at 0.266 ± 0.11.

As to TGCCT, the ligation selection enrichment came out at 0.408 ± 0.18.

For TGCCG, the ligation selection enrichment was 0.559 ± 0.02.

For the variant TGCCC, the ligation selection enrichment turned out to be 0.1927 ± 0.0019.

As to TGCCA, the ligation selection enrichment turned out to be 0.144 ± 0.028.

Regarding AGTCA, the ligation selection enrichment worked out at 0.891 ± 0.1.

As for AGTCC, the ligation selection enrichment was found to be 0.157 ± 0.034.

For AGTCT, the ligation selection enrichment was determined as 0.506 ± 0.043.

As to AGTCG, the ligation selection enrichment is 3.1 ± 0.045.

Consider CGTGT, for which the ligation selection enrichment worked out at 0.172 ± 0.066.

Take CGTGA: the ligation selection enrichment was determined as 0.58 ± 0.047.

Take CGTGC: the ligation selection enrichment was found to be 0.196 ± 0.039.

CGTGG: the ligation selection enrichment worked out at 0.261 ± 0.044.

Take TCGGT: the ligation selection enrichment was 0.115 ± 0.0078.

With TCGGG, the ligation selection enrichment is 0.41 ± 0.01.

In the case of AGCCC, the ligation selection enrichment was found to be 0.167 ± 0.05.

AGCCT: the ligation selection enrichment was determined as 0.307 ± 0.093.

Take AGCCA: the ligation selection enrichment was 0.161 ± 0.018.

Take AGCCG: the ligation selection enrichment was determined as 0.709 ± 0.025.

With AGTAA, the ligation selection enrichment stood at 0.427 ± 0.042.

As for AGTAG, the ligation selection enrichment turned out to be 1.697 ± 0.012.

For the variant AGTAC, the ligation selection enrichment is 0.492 ± 0.1.

For the variant AGTAT, the ligation selection enrichment amounted to 6.55 ± 1.2.

In the case of TGAGC, the ligation selection enrichment came to 0.156 ± 0.035.

As to TGAGG, the ligation selection enrichment was 0.319 ± 0.074.

With TGAGT, the ligation selection enrichment was determined as 0.221 ± 0.024.

As for TGAGA, the ligation selection enrichment stood at 0.376 ± 0.039.

AGGGT: the ligation selection enrichment worked out at 0.289 ± 0.097.

As for AGGGG, the ligation selection enrichment came to 0.251 ± 0.027.

Turning to AGGGA, the ligation selection enrichment worked out at 0.322 ± 0.059.

Regarding AGGGC, the ligation selection enrichment stood at 0.109 ± 0.0024.

As to GGTAT, the ligation selection enrichment worked out at 5.34 ± 1.2.

For the variant GGTAC, the ligation selection enrichment was 0.479 ± 0.053.

Turning to GGTAG, the ligation selection enrichment is 1.05 ± 0.028.

Regarding GGTAA, the ligation selection enrichment came out at 0.348 ± 0.1.

As for CGCTG, the ligation selection enrichment amounted to 0.141 ± 0.026.

Turning to CGCTA, the ligation selection enrichment is 0.127 ± 0.032.

As for CGCTT, the ligation selection enrichment was determined as 0.126 ± 0.017.

Turning to CGCTC, the ligation selection enrichment was determined as 0.0791 ± 0.025.

TCTAA: the ligation selection enrichment is 0.0912 ± 0.0077.

Regarding TCTAG, the ligation selection enrichment was 0.285 ± 0.051.

Take TCTAT: the ligation selection enrichment is 0.102 ± 0.035.

As to TCTAC, the ligation selection enrichment stood at 0.152 ± 0.03.

On to GGAAA, for which the ligation selection enrichment is 0.282 ± 0.011.

GGAAT: the ligation selection enrichment came out at 2.23 ± 0.17.

With GGAAG, the ligation selection enrichment came to 0.341 ± 0.011.

In the case of GGAAC, the ligation selection enrichment worked out at 0.226 ± 0.0027.

Take TGATA: the ligation selection enrichment worked out at 0.4829 ± 0.0015.

Consider TGATC, for which the ligation selection enrichment was found to be 0.143 ± 0.062.

For the variant TGATG, the ligation selection enrichment came out at 0.708 ± 0.08.

Consider TGATT, for which the ligation selection enrichment stood at 2.4 ± 0.61.

With AGTGA, the ligation selection enrichment was 0.842 ± 0.093.

As for AGTGT, the ligation selection enrichment was 0.133 ± 0.035.

As for AGTGG, the ligation selection enrichment is 0.414 ± 0.077.

As to AGTGC, the ligation selection enrichment came out at 0.186 ± 0.0091.

Consider GCTAG, for which the ligation selection enrichment worked out at 0.375 ± 0.11.

For GCTAT, the ligation selection enrichment is 0.196 ± 0.035.

As to GCTAC, the ligation selection enrichment came out at 0.15 ± 0.04.

For the variant GCTAA, the ligation selection enrichment worked out at 0.176 ± 0.0063.

Consider GCTCT, for which the ligation selection enrichment was determined as 0.165 ± 0.064.

On to GCTCC, for which the ligation selection enrichment amounted to 0.301 ± 0.0054.

With GCTCG, the ligation selection enrichment amounted to 0.533 ± 0.037.

For GCTCA, the ligation selection enrichment turned out to be 0.244 ± 0.1.

With CGGCC, the ligation selection enrichment amounted to 0.134 ± 0.031.

As for CGGCA, the ligation selection enrichment was determined as 0.177 ± 0.036.

For the variant CGGCT, the ligation selection enrichment is 0.432 ± 0.15.

In the case of CGGCG, the ligation selection enrichment came out at 0.328 ± 0.1.

On to AGATA, for which the ligation selection enrichment is 0.533 ± 0.16.

In the case of AGATC, the ligation selection enrichment came out at 0.204 ± 0.0068.

As for AGATT, the ligation selection enrichment was 1.66 ± 0.48.
